Source: publication doi:10.1101/062877
Like-named read-outs stand apart in the source and are kept apart here.

What was measured:
Assay in all cases: single-molecule TIRF microscopy of live cells
[1] = molecular target: DNA-CAR (DNA-based chimeric antigen receptor; HA-tagged non-fluorescent version, pHR-DNA-CAR-IRES-puro) (UniProt P42081)
[2] = molecular target: DNA-CAR (DNA-based chimeric antigen receptor; HA-tagged non-fluorescent version, pHR-DNA-CAR-IRES-puro) (UniProt P42081); remark: listed apart in the source
[3] = molecular target: DNA-CAR (DNA-based chimeric antigen receptor; HA-tagged non-fluorescent version, pHR-DNA-CAR-IRES-puro) (UniProt P42081); remark: listed apart in the source

Sequence of ZAP70-GFP (P43403 whole entry): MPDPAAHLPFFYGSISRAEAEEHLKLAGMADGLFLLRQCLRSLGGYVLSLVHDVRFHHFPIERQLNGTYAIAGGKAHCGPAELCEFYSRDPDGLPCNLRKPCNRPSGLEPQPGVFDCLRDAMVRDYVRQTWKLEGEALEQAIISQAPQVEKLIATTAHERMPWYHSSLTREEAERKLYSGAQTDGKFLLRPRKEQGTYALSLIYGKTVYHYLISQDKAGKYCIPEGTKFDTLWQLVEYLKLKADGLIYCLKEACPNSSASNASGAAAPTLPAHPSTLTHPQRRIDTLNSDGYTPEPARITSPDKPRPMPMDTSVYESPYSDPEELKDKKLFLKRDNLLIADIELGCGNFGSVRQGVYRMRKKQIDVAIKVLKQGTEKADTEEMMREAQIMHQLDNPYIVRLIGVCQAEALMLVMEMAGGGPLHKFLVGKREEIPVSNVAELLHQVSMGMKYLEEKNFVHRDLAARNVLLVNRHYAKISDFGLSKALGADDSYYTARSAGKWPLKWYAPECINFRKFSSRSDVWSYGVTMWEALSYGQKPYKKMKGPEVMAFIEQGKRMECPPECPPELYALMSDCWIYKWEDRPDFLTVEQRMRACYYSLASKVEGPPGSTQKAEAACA

percent of receptor-ligand clusters of 3 or more ligands that recruit ZAP70-GFP [1]: 53%
percent of single bound ligands that recruit ZAP70-GFP [1]: 2%
percent of single bound ligand-receptors that recruit ZAP70-GFP [2]: 2.2%
duration of ZAP70-GFP recruitment at a single ligated receptor [3]: < 20 s
half-life of the bound time on a single ligated receptor [3]: 10 s
percent of receptor-ligand clusters of 3 or more ligands that recruit ZAP70-GFP [3]: 83%
percent of single bound ligand-receptors that recruit ZAP70-GFP [3]: 6.3%
percent of single bound receptors that recruit ZAP70-GFP [3]: 20%
Substance: ZAP70-GFP (from UniProt P43403 1-619) (enzyme)
